In patent US12031137B2, “Compositions comprising SASP modulators and senescence attenuators and uses thereof for modulating cellular senescence” (RSEM, LIMITED PARTNERSHIP, priority 2016, dated 2024):

System: SEMA3A-FC
Experiment: Sema 3A binding assay on plate-coated purified traps (saturation curves, KD)
Settings: for Binding to SEMA3A: Table 2, Yes/No; for Kd / SEMA 3A-FC binding (dissociation constant): traps coated on plate, overnight incubation; for Kd: read-out: SEMA 3A-FC binding (dissociation constant)
Protocol: Sema 3A and AP-VEGF165 binding assays. Saturation curves for the determinations of KD of binding to SEMA 3A or VEGF165 were obtained as follow. Wells of high protein binding 96 well plates (Maxisorp, Nunc) were coated with purified traps diluted in PBS and blocked afterward with binding buffer (PBS containing 2% casein and 0.05% Tween 20). The SEMA3A-FC (R&D systems) or AP-VEGF165 ligands were diluted in binding buffer over an extensive range of concentrations and added to wells. Following an overnight incubation, wells were washed with PBS containing 0.05% tween. Bound SEMA3a-FC was detected using an HRP-linked anti-Human IgG (Biorad) and ECL substrate (Pierce). Alternatively, bound AP-VEGF165 was detected using CPD star substrate (Roche). The Chemiluminescent signal was acquired on a TECAN reader. Dissociation constant (KD) were determined by non-linear curve fitting using the Graph Pad prism software.
The relative affinity of traps of the present invention to SEMA3A and VEGF has been assessed. Traps were prepared as described in Example 8.

Molecule: Iso-d: Secreted NRP1 isoform S11; 704 amino acids; a1a2-b1b2-c (in part); SEQ ID NO: 46
- Binding to SEMA3A: Yes

Molecule: Iso-c: Secreted NRP1 isoform-c/Siv; 609 amino acids; a1a2-b1b2-c (in part); SEQ ID NO: 45
- Binding to SEMA3A: Yes

Molecule: Trap O: NRP1 trap a1a2-b1b2, aa about 22-583; SEQ ID NOs 77/78
- Binding to SEMA3A: Yes

Molecule: Iso-b: Secreted NRP1 isoform-b/S12; 644 amino acids; a1a2-b1b2-c (in part); SEQ ID NO: 44
- Binding to SEMA3A: Yes

B1: Trap R: NRP1 trap a1a2-b1b2-c, aa about 22-856, Y297A; SEQ ID NOs 69/70 (protein)
chain: FRNDKCGDTIKIESPGYLTSPGYPHSYHPSEKCEWLIQAPDPYQRIMINFNPHFDLEDRDCKYDYVEVFDGENENGHFRGKFCGKIAPPPVVSSGPFLFIKFVSDYETHGAGFSIRYELFKRGPECSQNYTTPSGVIKSPGFPEKYPNSLECTYIVFAPKMSEIILEFESFDLEPDSNPPGGMFCRYDRLEIWDGFPDVGPHIGRYCGQKTPGRIRSSSGILSMVFYTDSAIAKEGFSANYSVLQSSVSEDFKCMEALGMESGEIHSDQITASSQASTNWSAERSRLNYPENGWTPGEDSYREWIQVDLGLLRFVTAVGTQGAISKETKKKYYVKTYKIDVSSNGEDWITIKEGNKPVLFQGNTNPTDVVVAVFPKPLITRFVRIKPATWETGISMRFEVYGCKITDYPCSGMLGMVSGLISDSQITSSNQGDRNWMPENIRLVTSRSGWALPPAPHSYINEWLQIDLGEEKIVRGIIIQGGKHRENKVFMRKFKIGYSNNGSDWKMIMDDSKRKAKSFEGNNNYDTPELRTFPALSTRFIRIYPERATHGGLGLRMELLGCEVEAPTAGPTTPNGNLVDECDDDQANCHSGTGDDFQLTGGTTVLATEKPTVIDSTIQSEFPTYGFNCEFGWGSHKTFCHWEHDNHVQLKWSVLTSKTGPIQDHTGDGNFIYSQADENQKGKVARLVSPVVYSQNSAHCMTFWYHMSGSHVGTLRVKLRYQKPEEYDQLVWMAIGHQGDHWKEGRVLLHKSLKLYQVIFEGEIGKGNLGGIAVDDISINNHISQEDCAKPADLDKKNPEIKIDETGSTPGYEGEGEGDKNISRKPGNVLKTLDPRSGSKENLYFQG
- Binding to SEMA3A: Yes
- Kd: 6.15 nM

B2: Trap Y: NRP1 trap a1a2-c, aa about 22-274 and 584-856; SEQ ID NOs 91/92 (protein)
chain: FRNDKCGDTIKIESPGYLTSPGYPHSYHPSEKCEWLIQAPDPYQRIMINFNPHFDLEDRDCKYDYVEVFDGENENGHFRGKFCGKIAPPPVVSSGPFLFIKFVSDYETHGAGFSIRYELFKRGPECSQNYTTPSGVIKSPGFPEKYPNSLECTYIVFAPKMSEIILEFESFDLEPDSNPPGGMFCRYDRLEIWDGFPDVGPHIGRYCGQKTPGRIRSSSGILSMVFYTDSAIAKEGFSANYSVLQSSVSEDFKEVEAPTAGPTTPNGNLVDECDDDQANCHSGTGDDFQLTGGTTVLATEKPTVIDSTIQSEFPTYGFNCEFGWGSHKTFCHWEHDNHVQLKWSVLTSKTGPIQDHTGDGNFIYSQADENQKGKVARLVSPVVYSQNSAHCMTFWYHMSGSHVGTLRVKLRYQKPEEYDQLVWMAIGHQGDHWKEGRVLLHKSLKLYQVIFEGEIGKGNLGGIAVDDISINNHISQEDCAKPADLDKKNPEIKIDETGSTPGYEGEGEGDKNISRKPGNVLKTLDPRSGSKENLYFQG
- Binding to SEMA3A: No
- Kd: > 750 nM

B3: Trap AG: NRP1 trap a1a2b2, aa about 22-280, 431-583 and 631-700; SEQ ID NOs 57/58 (protein)
chain: MERGLPLLCAVLALVLAPAGAFRNDKCGDTIKIESPGYLTSPGYPHSYHPSEKCEWLIQAPDPYQRIMINFNPHFDLEDRDCKYDYVEVFDGENENGHFRGKFCGKIAPPPVVSSGPFLFIKFVSDYETHGAGFSIRYELFKRGPECSQNYTTPSGVIKSPGFPEKYPNSLECTYIVFAPKMSEIILEFESFDLEPDSNPPGGMFCRYDRLEIWDGFPDVGPHIGRYCGQKTPGRIRSSSGILSMVFYTDSAIAKEGFSANYSVLQSSVSEDFKKITDYPCSGMLGMVSGLISDSQITSSNQGDRNWMPENIRLVTSRSGWALPPAPHSYINEWLQIDLGEEKIVRGIIIQGGKHRENKVFMRKFKIGYSNNGSDWKMIMDDSKRKAKSFEGNNNYDTPELRTFPALSTRFIRIYPERATHGGLGLRMELLGCRSGSKENLYFQG
- Binding to SEMA3A: Yes

B4: Trap AF: NRP1 trap a1a2b2c, aa 1-280 and 431-856 incl. SP; SEQ ID NOs 55/56 (protein)
chain: MERGLPLLCAVLALVLAPAGAFRNDKCGDTIKIESPGYLTSPGYPHSYHPSEKCEWLIQAPDPYQRIMINFNPHFDLEDRDCKYDYVEVFDGENENGHFRGKFCGKIAPPPVVSSGPFLFIKFVSDYETHGAGFSIRYELFKRGPECSQNYTTPSGVIKSPGFPEKYPNSLECTYIVFAPKMSEIILEFESFDLEPDSNPPGGMFCRYDRLEIWDGFPDVGPHIGRYCGQKTPGRIRSSSGILSMVFYTDSAIAKEGFSANYSVLQSSVSEDFKKITDYPCSGMLGMVSGLISDSQITSSNQGDRNWMPENIRLVTSRSGWALPPAPHSYINEWLQIDLGEEKIVRGIIIQGGKHRENKVFMRKFKIGYSNNGSDWKMIMDDSKRKAKSFEGNNNYDTPELRTFPALSTRFIRIYPERATHGGLGLRMELLGCEVEAPTAGPTTPNGNLVDECDDDQANCHSGTGDDFQLTGGTTVLATEKPTVIDSTIQSEFPTYGFNCEFGWGSHKTFCHWEHDNHVQLKWSVLTSKTGPIQDHTGDGNFIYSQADENQKGKVARLVSPVVYSQNSAHCMTFWYHMSGSHVGTLRVKLRYQKPEEYDQLVWMAIGHQGDHWKEGRVLLHKSLKLYQVIFEGEIGKGNLGGIAVDDISINNHISQEDCAKPADLDKKNPEIKIDETGSTPGYEGEGEGDKNISRKPGNVLKTLDPRSGSKENLYFQG
- Binding to SEMA3A: No
- SEMA 3A-FC binding (dissociation constant): No binding

B5: Trap P: NRP1 trap a1a2-b1, aa about 22-424, Y297A; SEQ ID NOs 83/84 (protein)
chain: FRNDKCGDTIKIESPGYLTSPGYPHSYHPSEKCEWLIQAPDPYQRIMINFNPHFDLEDRDCKYDYVEVFDGENENGHFRGKFCGKIAPPPVVSSGPFLFIKFVSDYETHGAGFSIRYELFKRGPECSQNYTTPSGVIKSPGFPEKYPNSLECTYIVFAPKMSEIILEFESFDLEPDSNPPGGMFCRYDRLEIWDGFPDVGPHIGRYCGQKTPGRIRSSSGILSMVFYTDSAIAKEGFSANYSVLQSSVSEDFKCMEALGMESGEIHSDQITASSQASTNWSAERSRLNYPENGWTPGEDSYREWIQVDLGLLRFVTAVGTQGAISKETKKKYYVKTYKIDVSSNGEDWITIKEGNKPVLFQGNTNPTDVVVAVFPKPLITRFVRIKPATWETGISMRFEVYGCRSGSKENLYFQG
- Binding to SEMA3A: No
- SEMA 3A-FC binding (dissociation constant): No binding

B6: Trap Q: NRP1 trap a1a2-b1b2, aa about 22-583, Y297A; SEQ ID NOs 79/80 (protein)
chain: FRNDKCGDTIKIESPGYLTSPGYPHSYHPSEKCEWLIQAPDPYQRIMINFNPHFDLEDRDCKYDYVEVFDGENENGHFRGKFCGKIAPPPVVSSGPFLFIKFVSDYETHGAGFSIRYELFKRGPECSQNYTTPSGVIKSPGFPEKYPNSLECTYIVFAPKMSEIILEFESFDLEPDSNPPGGMFCRYDRLEIWDGFPDVGPHIGRYCGQKTPGRIRSSSGILSMVFYTDSAIAKEGFSANYSVLQSSVSEDFKCMEALGMESGEIHSDQITASSQASTNWSAERSRLNYPENGWTPGEDSYREWIQVDLGLLRFVTAVGTQGAISKETKKKYYVKTYKIDVSSNGEDWITIKEGNKPVLFQGNTNPTDVVVAVFPKPLITRFVRIKPATWETGISMRFEVYGCKITDYPCSGMLGMVSGLISDSQITSSNQGDRNWMPENIRLVTSRSGWALPPAPHSYINEWLQIDLGEEKIVRGIIIQGGKHRENKVFMRKFKIGYSNNGSDWKMIMDDSKRKAKSFEGNNNYDTPELRTFPALSTRFIRIYPERATHGGLGLRMELLGCRSGSKENLYFQG
- Binding to SEMA3A: No
- SEMA 3A-FC binding (dissociation constant): No binding

B7: Trap X: NRP1 trap a1a2-b1-c, aa about 22-430 and 584-856, Y297A; SEQ ID NOs 89/90 (protein)
chain: FRNDKCGDTIKIESPGYLTSPGYPHSYHPSEKCEWLIQAPDPYQRIMINFNPHFDLEDRDCKYDYVEVFDGENENGHFRGKFCGKIAPPPVVSSGPFLFIKFVSDYETHGAGFSIRYELFKRGPECSQNYTTPSGVIKSPGFPEKYPNSLECTYIVFAPKMSEIILEFESFDLEPDSNPPGGMFCRYDRLEIWDGFPDVGPHIGRYCGQKTPGRIRSSSGILSMVFYTDSAIAKEGFSANYSVLQSSVSEDFKCMEALGMESGEIHSDQITASSQASTNWSAERSRLNYPENGWTPGEDSYREWIQVDLGLLRFVTAVGTQGAISKETKKKYYVKTYKIDVSSNGEDWITIKEGNKPVLFQGNTNPTDVVVAVFPKPLITRFVRIKPATWETGISMRFEVYGCKITDYPEVEAPTAGPTTPNGNLVDECDDDQANCHSGTGDDFQLTGGTTVLATEKPTVIDSTIQSEFPTYGFNCEFGWGSHKTFCHWEHDNHVQLKWSVLTSKTGPIQDHTGDGNFIYSQADENQKGKVARLVSPVVYSQNSAHCMTFWYHMSGSHVGTLRVKLRYQKPEEYDQLVWMAIGHQGDHWKEGRVLLHKSLKLYQVIFEGEIGKGNLGGIAVDDISINNHISQEDCAKPADLDKKNPEIKIDETGSTPGYEGEGEGDKNISRKPGNVLKTLDPRSGSKENLYFQG
- Binding to SEMA3A: No
- SEMA 3A-FC binding (dissociation constant): No binding
